Results on 7 molecules are retold here after PMC7041688 (The Journal of Cell Biology, 2020).

One experiment addresses T1, CHC(1–642)-6xHis (UniProt Q00610 1-642).
T1 sequence (looked up): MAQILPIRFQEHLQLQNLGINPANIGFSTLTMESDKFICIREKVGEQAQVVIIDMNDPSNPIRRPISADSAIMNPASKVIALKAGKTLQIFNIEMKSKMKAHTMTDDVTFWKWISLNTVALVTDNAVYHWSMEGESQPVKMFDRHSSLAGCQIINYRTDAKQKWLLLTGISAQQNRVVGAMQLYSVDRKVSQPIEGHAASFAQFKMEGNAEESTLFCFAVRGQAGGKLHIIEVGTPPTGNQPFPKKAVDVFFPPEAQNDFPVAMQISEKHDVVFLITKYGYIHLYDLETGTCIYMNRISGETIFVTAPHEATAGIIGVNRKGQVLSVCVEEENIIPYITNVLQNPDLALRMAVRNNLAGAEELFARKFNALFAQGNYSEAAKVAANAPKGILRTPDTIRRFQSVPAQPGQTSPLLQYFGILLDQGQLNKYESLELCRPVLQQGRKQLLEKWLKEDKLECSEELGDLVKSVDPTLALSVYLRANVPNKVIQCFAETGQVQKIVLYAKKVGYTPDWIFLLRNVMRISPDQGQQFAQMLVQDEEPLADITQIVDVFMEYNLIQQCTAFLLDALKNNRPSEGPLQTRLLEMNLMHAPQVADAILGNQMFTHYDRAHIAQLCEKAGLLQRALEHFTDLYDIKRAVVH
Nature of the experiment: pull-down.

The target in the next experiment is T2, CHC(1–364) (UniProt Q00610 1-364).
T2 sequence (looked up): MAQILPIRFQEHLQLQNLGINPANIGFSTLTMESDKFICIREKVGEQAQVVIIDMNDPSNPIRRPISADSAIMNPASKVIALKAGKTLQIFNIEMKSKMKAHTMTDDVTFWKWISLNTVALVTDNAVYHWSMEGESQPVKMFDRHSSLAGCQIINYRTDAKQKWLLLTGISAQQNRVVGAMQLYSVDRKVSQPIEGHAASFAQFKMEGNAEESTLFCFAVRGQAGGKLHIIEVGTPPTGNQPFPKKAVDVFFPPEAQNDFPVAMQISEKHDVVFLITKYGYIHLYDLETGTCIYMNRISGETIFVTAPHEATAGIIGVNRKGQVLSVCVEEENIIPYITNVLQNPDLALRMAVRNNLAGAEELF
As to the kind of experiment: crystal structure.

For the next experiment, the target named is T3, GTSE1-GFP (purified) (human, UniProt Q9NYZ3 1-739).
T3 sequence (looked up): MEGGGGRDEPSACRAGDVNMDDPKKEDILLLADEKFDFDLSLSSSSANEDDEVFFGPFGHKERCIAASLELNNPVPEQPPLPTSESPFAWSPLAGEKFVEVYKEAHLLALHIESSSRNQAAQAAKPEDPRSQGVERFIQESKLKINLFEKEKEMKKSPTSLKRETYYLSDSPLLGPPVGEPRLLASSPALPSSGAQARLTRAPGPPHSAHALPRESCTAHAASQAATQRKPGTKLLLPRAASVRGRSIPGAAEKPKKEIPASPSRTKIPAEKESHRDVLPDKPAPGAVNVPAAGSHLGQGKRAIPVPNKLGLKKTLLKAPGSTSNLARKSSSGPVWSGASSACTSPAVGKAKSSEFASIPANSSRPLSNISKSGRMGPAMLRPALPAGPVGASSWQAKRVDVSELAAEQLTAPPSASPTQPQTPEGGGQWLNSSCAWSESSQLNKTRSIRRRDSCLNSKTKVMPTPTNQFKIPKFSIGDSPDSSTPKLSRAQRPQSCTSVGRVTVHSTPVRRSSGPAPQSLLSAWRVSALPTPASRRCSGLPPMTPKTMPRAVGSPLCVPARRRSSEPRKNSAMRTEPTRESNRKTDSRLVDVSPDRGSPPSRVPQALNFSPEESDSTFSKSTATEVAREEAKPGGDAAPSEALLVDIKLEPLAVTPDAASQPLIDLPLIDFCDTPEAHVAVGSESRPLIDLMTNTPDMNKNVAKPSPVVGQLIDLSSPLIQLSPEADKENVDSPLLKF
As to the kind of experiment: pull-down.

The target of experiment [1] is T4, GTSE1 (purified recombinant) (human, UniProt Q9NYZ3 1-739).
T4 sequence (looked up): T3 sequence (looked up)
As to the kind of experiment: pull-down.

Positions count from the first letter of the chain named. Names may count otherwise.

For MTNTPDMNKNVAKPSPVVGQLIDLSSPLIQLSPEADKENVDSPLLKF (domain or fragment, human, UniProt Q9NYZ3 693-739, looked up) [GST-GTSE1-C3], the binding result with CHC(1–642)-6xHis is on record as “binds”.
Still for that read-out and setting: for MTNTPDMNKNVAKPSPVVGQLIDLSSPAAALSPEADKENVDSPLLKF (domain or fragment, human, UniProt Q9NYZ3 693-739, looked up) [GST-GTSE1-C3 motif E mutant] the value was “binds”.

B1: GTSE1-C5 (domain or fragment, human)
chain: GPLGSLAVTPDAASQPLIDLPLIDFCDTPEAHVAVGSESRPLIDLMTNTPDMNKNVAKPSPVVGQLIDLSSP
As to B1, in the experiment with CHC(1–364), the binding result is given as “binds”.

B2: GTSE1-C4 (domain or fragment, human)
chain: GPLGSQPLIDLPLIDFCDTPEAHVAVGSESRPLIDLMTNTPDMNKNVAKPSPVVGQLIDLSSPLIQLSPE
B2: the binding result in the experiment with CHC(1–364) was “binds”.
On to PLAVTPDAASQPLIDLPLIDFCDTPEAHVAVGSESR (domain or fragment, human, UniProt Q9NYZ3 652-687, looked up) [GST-GTSE1-C1], for which the binding result with CHC(1–642)-6xHis is listed as “binds”.

B3: GST-CHC(1–330) (domain or fragment, UniProt Q00610 1-330, looked up)
chain: MAQILPIRFQEHLQLQNLGINPANIGFSTLTMESDKFICIREKVGEQAQVVIIDMNDPSNPIRRPISADSAIMNPASKVIALKAGKTLQIFNIEMKSKMKAHTMTDDVTFWKWISLNTVALVTDNAVYHWSMEGESQPVKMFDRHSSLAGCQIINYRTDAKQKWLLLTGISAQQNRVVGAMQLYSVDRKVSQPIEGHAASFAQFKMEGNAEESTLFCFAVRGQAGGKLHIIEVGTPPTGNQPFPKKAVDVFFPPEAQNDFPVAMQISEKHDVVFLITKYGYIHLYDLETGTCIYMNRISGETIFVTAPHEATAGIIGVNRKGQVLSVCVE
Take B3: the binding result (in the experiment with GTSE1-GFP (purified); in experiment [1]) was “binds” throughout.

B4: GST-CHC(1–330) S2M (domain or fragment, UniProt Q00610 1-330, looked up)
chain: B3 chain with Q152L, I154Q
With B4, in experiment [1], the binding result was “binds”.
